Tested on: MS2 coat protein
Assay: apparent KD of MS2 coat protein; higher = weaker reporter binding
Details: Eterna round: R107
In short: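 Apparent KD was obtained for each design as the median of normalised binding-curve fits over its clusters. RNA switches transcribed on-chip from Illumina sequencing clusters were titrated with SNAP-549-labelled MS2 coat protein (twofold steps, 0.7 or 1.5 nM to 3 µM) in 100 mM Tris-HCl pH 7.5, 80 mM KCl, 4 mM MgCl2, without or with constant ligand.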

[1] = input ligand: theophylline 20 uM
[2] = input ligand: theophylline 2 mM
[3] = input ligand: tryptophan 2.4 mM

| Sequence | apparent KD of MS2 coat protein (input ligand: arginine 13.2 mM) | apparent KD of MS2 coat protein [1] | apparent KD of MS2 coat protein [2] | apparent KD of MS2 coat protein (input ligand: none) | apparent KD of MS2 coat protein [3] |
| --- | --- | --- | --- | --- | --- |
| AGCCACUCGAGUGAUCCUCACGAGUGGCAACGAGGACCGGUACGGCCGCCACUCGAAUAAACAUGAGGAUCACCCAUGUAAUAAU [T''-M-T'-T-MS2] | 13.6 nM | 152 nM | 683 nM | – | – |
| UGUAUGGACUGAAGGAGCGGGUAAAUAACUUGAGGAUCACCCAGGUAAAAGGCGAAAGCCACCCAGGUAGGUCGCAGUCCAUACU | 23.6 nM | 32.1 nM | 29.2 nM | 21.1 nM | 25.5 nM |
| CUACAUUUGUAGAAACCGGUCAACAAUAAUCGAGGACCGGUACGGCCGCCACUCGUAUAAUUUUAUACAUGAGGAUCACCCAUGU [Tryptophan A 3] | 13.7 nM | 16.5 nM | 16.5 nM | – | – |
| AGAUUCGACACGGCCGCCACUCGAGACGGAUUUCCGAGUGUCGAACAUGAGGAUCACCCAUGUCCGAGGACCGGGUGUUGAGUCU [XTryp B #10] | 24.3 nM | 42.8 nM | 51.1 nM | – | – |
| GAUUACAUGAGGAUCACCCAUGUAACUGAAGGAGCGGUGAUAAAGCCAGGUAGGUCGCAGAACGACAUGUGGUUCAUCCAUGUAA [#16 Exclusion - Arginine A] | 33.7 nM | 43.9 nM | 48 nM | 36.8 nM | 30.3 nM |
| GAGGAUCAAGUAGAUACCAGCACAUGAGGAUCACCCAUGUAAUGGUGUCCCUCAAGAACGUGCCCUUGGCAGCUACUAUCAAAAU [Enarbeer] | 24.6 nM | 20.5 nM | – | – | 14.7 nM |
| ACGUCCGGAUUGAUCGUGGGCAUGGUCGAUACCAGUAUUUUAAUCUACCCUUGGCAGCGACAUGAGGAUCACCCAUGUGCGAUGA [XTheo A #19] | 16.1 nM | 21.5 nM | – | – | 16.2 nM |
| UUUGCACAUGAGGAUCACCCAUGUACAGAUACCAGCCUCAUCUACGGCCCUUGGCAGCUGAGACAAUGGUGACAUGAUGGGCUUU [Istein] | 16 nM | 20.4 nM | – | – | 12.3 nM |
| ACAUACAUGAGGAUCACCCAUGUCCAUGUUCGAGGACCGGUACGGCCGCCACUCGCGCGACAGCAUGAGGAACUUGAGGAUCACA [Exclusion Tryptophan A] | 39.5 nM | 104 nM | 82.2 nM | 63.8 nM | 48.8 nM |
| ACAUGGGUCUGAAGGAGCGCGAUAACAUGAGGAUCACCCAUGUAAAAUGGAACAUGAUAAUCGCAGGUAGGUCGCAGUAAAACCC [Same State Arginine B GF 11] | 133 nM | 344 nM | 704 nM | 303 nM | 365 nM |
| ACAUGAAGAACAGCGGUGGGCGCGCUCGAUACCAGUAUUUUAAAUUACCCUUGGCAGCGACAUGAGGAUCACCCAUGUGAGAUGA [XTheo A #5] | 22.5 nM | 24.8 nM | 33.8 nM | 18.1 nM | 18 nM |
| GGCCGAUGGUGCGAUACCAGCUUGAGUGUACUGGCCAGGUACAUGAGGAUCACCCAUGUAAGCCCUUGGCAGCGCGUCAAAGGCC [#1 Exclusion - Theophylline B Attempt #20 (HarryS)] | 7.09 nM | 17.6 nM | 24.2 nM | 11.3 nM | 10.5 nM |
| UGUAUGUGAUUUGAUACCAGACCAGCUGGUGGUGCAUGAGGAUCACCCAUGCAGGUUUGGGUCCCUUGGCAGCAAAUCGCAUACU [SS Theo B #24 Ms17] | 72.5 nM | 135 nM | 21.6 nM | 119 nM | 129 nM |
| UUAUAUAUGCGAAGGAGCGGGAAAUAUAUAUAUAUAAUCCUAACAUGAGGAUCACCCAUGUCCCAGGUAGGUCGCGCAUAUAUGG [12.E] | 74.2 nM | 76.8 nM | 95.1 nM | 84.4 nM | 75.7 nM |
| ACUAGAGGUGGAAGGAGCGGGAGACAUGAGGAUCACCCAUGUGAAGUUUCGAGAGGAUCAUCCCAGGUAGGUCGCCAUGUCGAAA [vvbvmullin] | 35.3 nM | 46.9 nM | 61.6 nM | 27.4 nM | 43.7 nM |
| UUGUUGUUUGGAAGGAGCGUGUAAGAUUAAGAACAUGAGGAUCACCCAUGUUUUAAGGGAACACAGGUAGGUCGCCGGGUGGUGG [11.R] | 15.5 nM | 19 nM | 14.8 nM | 13.9 nM | 15.6 nM |
| ACAUGAGGAUCACCCAUGUAUGAUGUUCCUCGAGGACCGGUACGGCCGCCACUCGAACGAGUGGCGCGCGCGCGCGCGCGCGCGC [aUa] | 54.8 nM | 35.1 nM | 22.7 nM | 16.5 nM | 16.4 nM |
| GGAUAGGACACGGCCGCCACUAGCUAGGAUACUAGCAACAUUUCCUCACUUGAGGAUCACCCAGGUAGGACCGGGUGUCCUAUCG | 143 nM | 577 nM | 1430 nM | 580 nM | 620 nM |
| UUGUUGUUUGGAAGGAGCGUGGAUGAGUGAGAACAUGAGGAUCACCCAUGUUGUAUGAUACCGCAGGUAGGUCGCCGGGUGGUGG [11.aB] | 16.9 nM | 39.6 nM | 21.5 nM | 18.1 nM | 17.5 nM |
| UCGCUCUGGGUGGGAUCCGGAGAUGUGGAAGGAGCGCUGGUUACAGCAGGUAGGUCGCCAACGGACAUGAGGAUCACCCAUGUAC [Same State - Arginine A (Freestyle 16)] | 53.3 nM | 49.4 nM | 39.5 nM | 41.3 nM | 36.2 nM |
| UCGGGCAGAGCGGCCGCCACUGUAUGGCGUGCGGAUGACGGAACAUGAGGAUCACCCAUGUUGUUUAGGACCGGGCUUGCCGCGA [cocmullin] | 14 nM | 14.7 nM | 11.5 nM | – | – |
| UGUAUGUGAUGGGAUACCAGACCAGCUGGUGAUACAUGAGGAUCACCCAUGUAAAUUUGGGUCCCUUGGCAGCCCAUCGCAUACU [SSTheo B #25] | 32.4 nM | 68 nM | 63.7 nM | 22 nM | 23.9 nM |
| UGGUUUCGGUCAAUCACCGGUCCCUGGGAAGGAGCGGACUCAUGUCCAGGUAGGUCGCCCAGACAUGAGGAUCACCCAUGUGACA [Tiusdiin] | 32.5 nM | 409 nM | 142 nM | 174 nM | 24.1 nM |
| AGCUCGACUCGCAGCUGGAUGCCCGCUUGCCGAGGACCGGUACGGCCGCCACUCGUCACUCGACAUGAGGAUCACCCAUGUGAUA [theeternabot_exclusion_MS2_Trp_A_32] | 36.3 nM | 136 nM | 140 nM | – | – |
| AACAUGAGGAUCACCCAUGUCCUCGUGUACCGAGGACCGGUACGGCCGCCACUCGGUUCUCGCGAGGAUGGUCAAAGACUAUCCA [Omei Trp A SS B v4] | 202 nM | 643 nM | 1010 nM | – | – |
| CCCAGUCAUAGCAGGGCAAAUAUACUCGAAGGAGCGUCAUAGUAGGCAGGUAGGUCGCGAGACAUGAGGAUCACCCAUGUAGAGA [cccmullin] | 33.6 nM | 67 nM | 44.2 nM | 52.3 nM | 44.8 nM |
| UCACGUGGGAAUGAUACCAGCCACAUGAGGAUCACCCAUGUGCAUGGUGUGAGCUUCACGGGCCCUUGGCAGCAUUUCAAGUCGC [Agelaus] | 39.9 nM | 93.1 nM | – | – | 37.9 nM |
| GAUAUGGAAACAUGUCAGAUCCUUACCGGUCGAGGACCGGUACGGCCGCCACUCGCAAAUAUUGUACAUGAGGAUCACCCAUGUA [Ex Tryptophan A 17] | 13.2 nM | 15.4 nM | 13.6 nM | – | – |
| GGCACAUAGUCGGCCGCCACUAGUGGGAAAUGGGAGAACAUGAGGAUCACCCAUGUAGCGUAGCCUAGGACCGGGACUAUGUGCC [Elephant] | 85.3 nM | 172 nM | 231 nM | – | – |

Source: the supplement of paper PMC9170038
